Results published in the DeepSol protein solubility set.

test: soluble on expression in E. coli; label from the status in PepcDB or PDB records

Soluble on expression in E. coli, not soluble:
MGSDKIHHHHHHMSPRCSTCGMGQLCLPVGMNQQDLQKMDTLVQERVRVHKGETLYRMGDPLTAVYAIRFGTLKTHVTTEDGRSQITGFHLPGEVVGLDGLGEMQHASDATALEDTEVCVVRLSDLQSLSMDLPSLQQQFLRLMGKEISNDQLMLVTLGSMRAEERLAAFLINLSERLSARGYSSTEFVMRMSREEIGSYLGLKLETVSRLFSRFAEAGLIQIRQRHVKLVDMAGIKQVYSRSC, MGSDKIHHHHHHMSRDAPIKADKDYSQILKEEFPKIDSLAQNDCNSALDQLLVLEKKTRQASDLASSKEVLAKIVDLLASRNKWDDLNEQLTLLSKKHGQLKLSIQYMIQKVMEYLKSSKSLDLNTRISVIETIRVVTENKIFVEVERARVTKDLVEIKKEEGKIDEAADILCELQVETYGSMEMSEKIQFILEQMELSILKGDYSQATVLSRKILKKTFKNPKYESLKLEYYNLLVKISLHKREYLEVAQYLQEIYQTDAIKSDEAKWKPVLSHIVYFLVLSPYGNLQNDLIHKIQNDNNLKKLESQESLVKLFTTNELMRWPIVQKTYEPVLNEDDLAFGGEANKHHWEDLQKRVIEHNLRVISEYYSRITLLRLNELLDLTESQTETYISDLVNQGIIYAKVNRPAKIVNFEKPKNSSQLLNEWSHNVDELLEHIETIGHLITKEEIMHGLQAK, MGSDKIHHHHHHMSRNSPLEISRTLVAALSTQMFRYYEDRIPQDASVLVVSNHRSFMDALILMAALSSPIRFACHHYMGQVPVMREIVTGQLGCFPLEETQNRQQSFFSQSQLLLQSKQMVGVFPEGTAPMVKSTQPNQVGEFQRGFAHLALRADVQDLAILPIAIASLEEVNTNGFPLRLLSVFDPSEPLFNQAGWHPLVIYRRVAVLIGRPYWITPQHQKKYHGKQARTVVAELTEHCHGEISHLLRQGCY, MGSDKIHHHHHHMSRTADSLPSTRQRRKEARPQELLDAALDLFVEKGFAATRSEEVAARAGVSKGTLYLYYPSKEELLKAVIRENISQEIAEGEDIVRGFDGPTAELLAHLMAEWWRRIGETRASGICKLIISEVRNFPDIAQFYLDEVVLPAERMIGGVVQRGIDRGEFRPVAVDDVVHALMAPMLFLMLHKHSMGACPNLDRRLDAPRVVAMQVDLVLNGLVPRTAPRGGPRKAKA, MGSDKIHHHHHHMSSEQIIASLKELVATPENPGKVLTDPADLDNYGKDWTKIYPPKPLAIVLPKTTEQVQALVKFANENQVALVPSGGRTGLSAGAVAANGEVVVAFDNMNQILDFNASDRTVRCQAGVVTEQLQTFAEENGLYYPVDFASAGSSQLGGNLSTNAGGIKVIRWGMSRDWVAGLKVVTGKGDVLDLNKDLAKNNTGYDLRHLFIGAEGTLGFITEATMKLTRKPDDLTVLVLGLNDLTNTMDVLQAFQKKLDLTAYEFFSHQAMGHVLAHGQVQAPFETEAPYYALLEFEAVSDQVMDDAMALFEQCVEEGWVLDGVISQSETQAQNLWQLRERISESIAPRIPYKNDISVVVSKVPGFLQEIDNVVTEHYPDFEIIWFGHIGDGNLHLNILKPEDMAKEDFFEKCQQVNKWVFEIVERYQGSVSAEHGVGMTKKPYLQYTRSEAEIAYLRGIKQVFDPNNIMNPGKIFD, MGSDKIHHHHHHMSSFAEFSRLALTLEPWRQHIVFVGGWAFRLYGYEPRAYTADHKPIFTQDADVAYDKRELIEGDIKTALEGAGFTEQPNLAGGFRPPAMRYNLDGDENGFYAEFLTPLTGSGKKRDGKGGLKEDATERYAGIVAQKLRFLEVLLFKPWLVTIPKEESGLDEAVADLRVPNPVSFMIQKLLIRDRREGKKRAQDVLYIHGTLQIFYGVVENDLVPIWKELEATLHANQRKSVREGVQELFSEMNDVIREAAEIPDDKLDPEAMLQLCREGFEELFGDI, MGSDKIHHHHHHMSSLGLIRNLPRSRFVPLVVLHDTDGPVADLFRREGIDFVAAPVLNRLARAAPRNGAAVVNVMRTLPALVRFLRASNASIVHTNDGRTHLIWGLAARVAGAKHLWHHRGDATSFGLRRVAPWLPNRLVAVSKFASPRPGIFSAASKCSVVHSPFDVTKMAGFEREEARNNVLAAIRCAPETKLLGYVGTLVDRKRPILFVEAVAALKRLSPETKVVGLFFGNALNGLDEAAKSRAEALGVADCIHFMGFRYPGEPWIAGLDALLVTAVNEPLGRTLVEAMLLGTPVVAADSGGNPEVVEDGRTGMLVRADDPDEFARACLKLFSDAALRDRIVETARNEVRARFSFERHVHAITSVYEELTGGMAAMQRSARAG, MGSDKIHHHHHHMSSSDRYMQRGVSSQKEDVHKAIKSIDKGIYPRAFCKIIPDILGGDPEYCNIMHADGAGTKSSLAYVYWKETGDISVWKGIAQDAVIMNIDDLICVGAVDNILLSSTIGRNKNLIPGEVLAAIINGTEEVLQMLRDNGIGIYSTGGETADVGDLVRTIIVDSTVTCRMKRQDVISNENIKAGNVIVGFASYGQTSYETEYNGGMGSNGLTSARHDVFNNVLASKYPESFDPKVPENLVYSGEMNLTDPYLNVPLDAGKLVLSPTRTYAPLMKEIIHQYKGKLDGVVHCSGGGQTKVLHFTDATTHIIKDNLFDVPPLFQLIQGQSNTPWEEMYKVFNMGHRLEIYTDAAHAEGMIAIAKKFNIEAKIIGRVEAPVAGKRLTITGPQGTEYTYA, MGSDKIHHHHHHMSTAVTFFGQHVLNRVSFLRCSKEFIKKSLNHDSTVFIPFIEGEALISPENGDLVQLSNSVKSYKNILSAIVPLYTTLLNTTRSRSDESGINVTFLGLLEGTDSAFNFEWSNISYKGTPYFGLDIRVTESTLFKKVDFEPIFSYPKVTRDHIFKQTNEDASLYSQGKMYLDWLAKYKFCPGCGSPLFPVEAGTKLQCSNENRNVYCNVRDARINNVCFPRTDPTVIIALTNSDYSKCCLARSKKRYGDFVLYSTIAGFMEPSETIEEACIREIWEETGISCKNIDIVRSQPWPYPCSLMIGCLGIVQFNSKNEVINLNHDDELLDAQWFDTTEIIQALDKYAGGYRVPFKNDINLPGSTTIAFQLINHVCENYKNLRKTSSSHL, MGSDKIHHHHHHMSTELNTMALSVPQGAGLDGYIQSVNRIPMLTAEKEKALATRLYENSDLDAAKELIMSHLRFVVHVARSYSGYGLPQADLIQEGNIGLMKAVKRFDPSVGVRLVSFAVHWIKAEIHEYVLRNWRVVKVATTKAQRKLFFNLRKMKKRLGWFSQKEVETVANELGVSTKEVLEMETRMSAHDQAFELSSDDDDSKEGSAYSPAMYLEDKRSDLAAEIEAKDYENHTQQKLLGAMSHLDERSQDIVQSRWLSEDKTTLHDLAEKYEVSAERVRQLEQNAMKKLRLAMS, MGSDKIHHHHHHMSTIEERIKEIEDEIKRTQYNKATEHHIGLLKAKIARLQMEARAHKGGGHYGFSIPKSGDATVALVGFPNVGKSSLLNVLTNSESEVGSYAFTTLKAIPGVMEYKGAEIQILDLPGIIENASYGAGRGREILSTVRSADLIVIVTDVETGGLDKIVKELYNSGIVVNRRRKNIEIKKTTSGGIRVHKPKNVDIDSEYIRQLMKEFKLVNADVYIREQVNEDDIIEAVQKNYVYIPSIVAVNKIDMNGAFDTSPLTRFGEVFKVSAKNRIGIDELREGIYRSLKLLRVYLRNKAGVVDFDKPLILTDGSTVRDVCRKINRSLIDSFRYAIISGKNRPIGEQRVGIDYPLLDEDIVTIISRN, MGSDKIHHHHHHMSVMFDPDTAIYPFPPKPTPLSIDEKAYYREKIKRLLKERNAVMVAHYYTDPEIQQLAEETGGCISDSLEMARFGAKHPASTLLVAGVRFMGETAKILSPEKTILMPTLQAECSLDLGCPVEEFNAFCDAHPDRTVVVYANTSAAVKARADWVVTSSIAVELIDHLDSLGEKIIWAPDKHLGRYVQKQTGGDILCWQGACIVHDEFKTQALTRLQEEYPDAAILVHPESPQAIVDMADAVGSTSQLIAAAKTLPHQRLIVATDRGIFYKMQQAVPDKELLEAPTAGEGATCRSCAHCPWMAMNGLQAIAEALEQEGSNHEVHVDERLRERALVPLNRMLDFAATLRG, MGSDKIHHHHHHMSWNSFGNFMSARSSALAEFGNMVANLVSAKNEKDISKRNEYYKQAGYSALLAFGNLASNIAPGSTSSHIVNGTNASVIASRLSGNISSAIQEHKDGKVNINRFQNILADLYSLGGLGSTLIEKNGNMQSWGIPLAIAGDIIAATAIATGDTGTISTEEFYNFDNWKGFGYELFEDWSRWVYDWLPDGWNLWKELDRNRCWILTERDGRRQFKWLGKPDPTRGWFDNGHECLKPWGNIFDSYRRGKYHVYDPLALDLDGDGIETVATKGFSGALFDHRNQGIRTATGWVSADDGLLVRDLNGNGIIDNGAELFGDNTKLADGSFAKHGYAALAELDSNGDNIINAADAAF, MGSDKIHHHHHHMSWSSAIFTGAVVHQRHRPKKHSLRYQVFCLLVDLDELPAIDKSLWLLGYNRRAILRIDDRDHGLGIPGGLKAWVANHVERAGLNTEGMKVSMLCYPRMFGYVFNPLTLYYCYGPSGTLLALLYEVENTFHERHTYVIPASVEEDGAIRHACAKQMYVSPFMPMECLYRFKIVPPGETVTVAINEADEQGPLLYASFCGKRRTLDDRALAKVLVRYPLMTLKVMGAIHWEALKLWVKGVPLHRHRKAQNPIASSIIPPEAANARSPS, MGSDKIHHHHHHMSYSAKVLWGEGLFLRPQHFQRQDAYHEARLFESIQAIQPYNWGVRSVRFDRDALGSNVLRASELSLVFPDGALYSAPQADELPPPIALDTLPEGINEFTFYLALHPLRETGSNYADDRDAGFVSRFVSEQASVADHFTDAAEADITFLKTNVKLIAHSEPRDQLLSIPLVRVRRTATSGFEIDDGFVPPCLAIEASPILHQRLRQLIDALQAKVNALYGFHREPTKNIIEFRSGDIASFWLLHTASAAFAALAHLHQHSALHPERLFQELLRLAGQLMTFSKGYVLADLPAYRHDDPGPGFARLDSILRELLETVISTRYFAITLEEVRPSFHVGRLDSGKIDDKTAFYLAVSADMPSVELVDAVPARFKVGAPDDVDKLVLSAMPGVRLAYTPQVPPAIPVRPGACYFALDARSPLYERMLQAQSAMIYAPSGINDLKFELIAVTS, MGSDKIHHHHHHMTALDKTGLKILNFQQLLNQLTAKTQELFGDDVNTDQNSALGMYIRVISWLQNIVNQDLEAVYYSSFVDQAEGVSLDRLGSNYSVTRNPAQAATVMLDFTGTTGTVIPEETVYTTESGVEFEMVDTVTLDDSGKGSGEAVCTALDETGNVAPNTISVQGENIAGIESVTNPTQASGGTEIETDDAYRQRIHLSMESQPGPTYYGLYTGLYALPGVEQVQIVPNLTMETDSYGNPPKSLHFYVRGGREDDVAQAILDNIAAGIQTVGKIKEAVKDIGGHTHDVFFDTATVVPIYVNMSLKTSDDFNSETSPVEIVQAIKDYLSGLIMGDKVVFTKLYQAIYNISGVEYAQVTLGRDKSAMGMADIQLDQFETAVVANDSDVEVTVDDG, MGSDKIHHHHHHMTALSSVDFCLPEHITPEIFLRDYWQKKPLVIRNGLPEIVGQFEPQDIIELAQNEDVTARLVKTFSDDDWKVFFSPLSEKDFQKLPEKWSVLVQNLEQWSPELGQLWNKFGFIPQWQRDDIMVSYAPKGGSVGKHYDEYDVFLVQGYGHRRWQVGKWCDASTEFKPNQSIRIFDDMGELVIDEVMNPGDILYIPARMAHYGVAEDDCLTFSFGLRYPNLSNLIDGISKGFCHQDPDLNLSEFDLPLRLSQSEQRTGKLADENIQAMKQLLLDKLAHSEAFDTLFKQAVASAVSSRRYELLVSDEMCDPDEVRSILEEDGAFLSQDNNCKLLYTENPLRIYANGEWLDELNIIESEVLKRLSDGESLDWAFLSDLANKTEDPETSMDLLLDSICNWVDDGWALIE
